Source: US20250339569A1 (3B PHARMACEUTICALS, published 2025)
Starred links: 1 amine or outer side, 2 acyl side, 3 side chain; linkers in the order of their positions; H or OH if unused. Positions of bridges follow the written chain, without caps; N, C: chain ends. Non-standard residues stand in square brackets, D forms with d. Primed or numbered codes have the meaning given here. *: point of attachment. Aph(4SaPy2Ac) = 4-amino-L-phenylalanine, ring amine acylated by (4-sulfamoyl-pyrazol-1-yl)-acetic acid, NS(=O)(=O)c1cnn(CC(=O)Nc2ccc(C[C@H](N[*:1])C(=O)[*:2])cc2)c1; Aph(6SaPyr3) = 4-amino-L-phenylalanine, ring amine acylated by 6-sulfamoylpyridine-3-carboxylic acid, NS(=O)(=O)c1ccc(C(=O)Nc2ccc(C[C@H](N[*:1])C(=O)[*:2])cc2)cn1; Aph(SaPr)(5) = 4-amino-L-phenylalanine acylated on the ring amine with 3-sulfamoylpropanoic acid, NS(=O)(=O)CCC(=O)Nc1ccc(C[C@H](N[*:1])C(=O)[*:2])cc1; Aph(SaPr)″ = 4-amino-L-phenylalanine, ring amine acylated with 3-sulfamoylpropanoic acid, NS(=O)(=O)CCC(=O)Nc1ccc(C[C@H](N[*:1])C(=O)[*:2])cc1; Ttds(4) = 1,13-diamino-4,7,10-trioxatridecan-succinamic acid spacer, O=C(CCC(=O)[*:2])NCCCOCCOCCOCCCN[*:1]; Af3(Btda) = 3-amino-L-phenylalanine, ring amine acylated by benzothiadiazine-7-carboxylic acid; PPAc(3) = 4-carboxymethyl piperazine linker between DOTA and Gln1, O=C(CN1CCN([*:1])CC1)[*:2]; 111In‑DOTA = O=C([O-])CN1CCN(CC(=O)[O-])CCN(CC(=O)*)CCN(CC(=O)[O-])CC1.[111In+3]; Phe(3-NHCO(CH2)3SO2NH2) = N[C@@H](Cc1cccc(NC(=O)CCCS(N)(=O)=O)c1)C(=O)O; APAc″ = 2-(4-(amino)piperidin-1-yl)acetic acid, NC1CCN(CC(=O)*)CC1; DOTA = O=C(O)CN1CCN(CC(=O)O)CCN(CC(=O)*)CCN(CC(=O)O)CC1; Biotin = O=C1N[C@H]2[C@H](CS[C@H]2CCCCC(=O)*)N1; PPAc = 4-carboxymethyl piperazine linker; mXylylene = c1cc(C[*:1])cc(C[*:2])c1; Cy5SO3 = Cy5 dye with one sulfonate; APAc = not defined here; Dap = NC[C@H](N)C(=O)O; Sni = not defined here

How the values were obtained:
[1] = biological target: T1, human carbonic anhydrase IX (CAIX) (human, UniProt Q16790 38-459); assay: FACS competition, HT-29 cells, tracer 3BP-4149; pIC50 category C: 6.1-7.0
Experimental: (§1) CAIX-expressing human HT-29 colorectal cancer cells (DSMZ, RRID: CVCL_0320) were cultured in McCoys's 5A modified medium (Biochrom, #F1015) including 10% fetal calf serum (FCS), 2 mM L-glutamine, 100 U/ml penicillin and 100 μg/mL streptomycin. Cells were detached with Accutase (Biolegend, #423201) and washed in FACS buffer (PBS including 1% FCS). Cells were diluted in FACS buffer to a final concentration of 500.000 cells per ml. 200 μL of the cell suspension were transferred to a u-shaped non-binding 96-well plate (Greiner) and cells were washed in ice-cold FACS buffer.
(§2) When biotinylated compounds were used an additional incubation step with 1 μg/mL APC-Streptavidin (Miltenyi; #130-106-791) in 50 μL FACS buffer for 30 minutes on ice was performed.
(§3) Cells were washed twice with ice-cold FACS buffer and analyzed in an Attune NxT flow cytometer (Thermo Fisher). Median fluorescence intensities (MFI) of the APC/Cy5-channel were calculated by Attune NxT software.

[2] = biological target: T2, canine carbonic anhydrase 9 (CAIX) (dog); assay: radioligand saturation binding on CHO cells with dog CAIX, 8 h at 37 C
T2 construct: also called dog CAIX; dgCAIX
T2 sequence (chain, as listed by the source limits assumed): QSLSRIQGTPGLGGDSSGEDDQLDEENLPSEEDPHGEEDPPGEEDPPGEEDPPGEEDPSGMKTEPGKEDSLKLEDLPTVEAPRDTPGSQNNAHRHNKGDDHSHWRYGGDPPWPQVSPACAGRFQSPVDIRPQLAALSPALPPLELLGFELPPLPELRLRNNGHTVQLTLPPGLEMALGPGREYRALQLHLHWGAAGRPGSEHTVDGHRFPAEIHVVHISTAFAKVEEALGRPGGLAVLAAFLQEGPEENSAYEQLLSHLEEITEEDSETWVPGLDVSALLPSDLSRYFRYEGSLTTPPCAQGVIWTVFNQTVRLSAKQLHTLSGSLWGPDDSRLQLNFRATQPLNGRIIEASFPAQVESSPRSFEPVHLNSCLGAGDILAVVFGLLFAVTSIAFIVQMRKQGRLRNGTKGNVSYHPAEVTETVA
Experimental: The radioligand saturation binding on CHO-huCAIX and dgCAIX was determined as follows. […] To determine total binding, 700 μL of binding medium and 100 μL of the radioligand dilutions were added to the wells in triplicates. […] The plates were incubated for 8 h at 37° C. under standard cell culture conditions (5% CO2). At the end of the incubation time the plates were placed on ice while aspirating the radioligand solutions. Aliquots of the 20 nM supernatants were transferred to HPLC vials for analysis of radioligand stability over the incubation time. Subsequently, the cells were washed with ice-cold PBS (0.5 mL, 1 mL, 1 mL). 300 μL of RIPA buffer containing PIC was added to each well and the plates were placed on a shaker for 10 min at ambient temperature. 200 μL of the cell lysate of each well was transferred to gamma-counting tubes. Their associated radioactivity was counted using a gamma counter and normalized to the measured protein concentration of each well (see chapter 6.3.7 BCA protein assay). An aliquot of each radioligand dilution was included in the gamma counter measurements to allow for determination of the actual radioligand concentrations in the dilution series.

[3] = biological target: Human carbonic anhydrase IX Fc-fusion protein (CAIX, Sino Biological, 10107-H02H) (human, UniProt Q16790 38-414); assay: SPR (Biacore T200), CAIX-Fc captured by anti-human Fc antibody, peptide as analyte, single cycle kinetics, 25 C, 1:1 Langmuir fit
Experimental: Surface Plasmon Resonance (SPR) studies were performed on a Biacore™ T200 using a ligand capture approach. Basically, anti-human Fc antibodies were immobilized on the surface of a sensor chip and CAIX was captured on the functionalized surface via its Fc Tag.

[4] = biological target: T3, human carbonic anhydrase 9 (CAIX) (human, UniProt Q16790 38-459); assay: FACS binding assay on CAIX-expressing HT-29 cells, Cy5-labeled compound; pEC50 category (A = pEC50 >8.0)
Experimental: as §1, §2, §3

[5] = biological target: T4, human carbonic anhydrase IV (CAIV), biotinylated (human, UniProt P22748 19-283, limits assumed, biotinylated); assay: SPR, biotinylated CAIV captured (Biotin CAPture)
T4 construct: Bought (SinoBiological, Cat # printed 10472-1H081H); also called hCAIV-bio
Source text: (§4) For each test compound, SPR raw data in the form of resonance units (RU) were plotted as sensorgrams using the Biacore™ T200 control software. The signal from the blank sensorgram was subtracted from that of the test compound sensorgram (blank corrected). The blank corrected sensorgram was corrected for baseline drift by subtracting the sensorgram of a SCK run without the test compound (running buffer only). […] Raw data and fit results were imported as text files in IDBS. The pKD value (negative decadic logarithm of dissociation constant) was calculated in the IDBS excel template.

[6] = biological target: T5, Fc-fusion protein of human carbonic anhydrase IX (human, UniProt Q16790 38-414); assay: SPR, captured hCAIX-Fc; t1/2 category A: >15.0 min
[7] = biological target: T5, Fc-fusion protein of human carbonic …; assay: SPR, CAIX; pKD category A: >8.0
Experimental: Stock solutions of test compounds were prepared by dissolving each compound in DMSO. DMSO stock solution were diluted 1:1000 in Running Buffer without DMSO. […] SPR binding analyses were performed in Single Cycle Kinetic (SCK) mode at 25° C.
as §4

[8] = biological target: T5, Fc-fusion protein of human carbonic …; assay: SPR, captured hCAIX-Fc; pKD category A: >8.0
[9] = biological target: T6, human carbonic anhydrase XIV (CAXIV), biotinylated (human, UniProt Q9ULX7 16-290, biotinylated); assay: SPR, biotinylated CAXIV captured (Biotin CAPture)
T6 construct: Bought (SinoBiological Cat #10458-H08H); also called hCAXIV-bio
Source text: as §4

[10] = biological target: T7, human carbonic anhydrase XII (CAXII), biotinylated (human, UniProt O43570 25-301, biotinylated); assay: SPR, biotinylated CAXII captured (Biotin CAPture)
T7 construct: Bought (SinoBiological Cat #10617-H08H); also called hCAXII-bio
Source text: as §4

[11] = biological target: T1, human carbonic anhydrase IX (CAIX); assay: radioligand binding, 111In-labeled compound, CHO cells with human CAIX; pKD category A: >8.0
Experimental: (§5) CHO-VGT cells were transfected with the human, dog, and mouse CAIX (InSCREENex GmbH) and cultured in Ham's F-12 medium (Sigma-Aldrich #N4888) supplemented with 10% fetal bovine serum (FCS), 2 mM L-glutamine, 100 U/mL Penicillin, and 0.1 mg/mL streptomycin. […] Cell concentrations were adjusted to 3×10⁵ mL⁻¹, and 1.000 μL of the suspension per well were dispensed into flat-clear-bottom 24 well plates.
(§6) Approximately 24 hours after re-seeding, the medium was aspirated and the cells were washed once with 1000 μL assay medium (Ham's medium without additives). To determine total binding, 700 μL of assay medium and 100 μL of the radioligand dilutions were added to the wells in triplicates. To determine non-specific binding, 600 μL of binding medium, 100 μL of the radioligand dilutions and 100 μL of a blocking solution containing 8 μM non-labeled compound were added to the wells in triplicates. […] An aliquot of each radioligand dilution was included in the gamma counter measurements to allow for determination of their actual concentrations via their known specific activity.

[12] = biological target: T8, canine carbonic anhydrase 9 (CAIX) (dog); assay: radioligand binding, 111In-labeled compound, CHO cells with dog CAIX; pKD category A: >8.0
T8 construct: On transfected CHO-VGT cells; also called dog CAIX
T8 sequence (chain, as listed by the source limits assumed): as above
Experimental: as §5, §6

[13] = biological target: T9, murine carbonic anhydrase 9 (CAIX) (mouse, UniProt Q8VHB5 32-437); assay: radioligand binding, 111In-labeled compound, CHO cells with mouse CAIX; pKD category C: 6.1-7.0
T9 construct: On transfected CHO-VGT cells; also called mouse CAIX

[14] = biological target: T9, murine carbonic anhydrase 9 (CAIX); assay: radioligand binding, 111In-labeled compound, CHO cells with mouse CAIX; pKD category B: 7.1-8.0
[15] = biological target: T1, human carbonic anhydrase IX (CAIX); assay: FACS competition, HT-29 cells, tracer printed 3BP-414 (probably 3BP-4149); pIC50 category B: 7.1-8.0
Experimental: as §1, §2, §3

[16] = biological target: T1, human carbonic anhydrase IX (CAIX); assay: FACS competition, HT-29 cells, tracer 3BP-2776; pIC50 category A: >8.0
Experimental: as §1, §2, §3

[17] = biological target: T3, human carbonic anhydrase 9 (CAIX); assay: FACS binding assay on CAIX-expressing HT-29 cells, biotinylated compound detected with APC-streptavidin; pEC50 category (B = pEC50 between 7.1 and 8.0)
Experimental: as §1, §2, §3

T9 sequence (Q8VHB5 32-437 limits assumed): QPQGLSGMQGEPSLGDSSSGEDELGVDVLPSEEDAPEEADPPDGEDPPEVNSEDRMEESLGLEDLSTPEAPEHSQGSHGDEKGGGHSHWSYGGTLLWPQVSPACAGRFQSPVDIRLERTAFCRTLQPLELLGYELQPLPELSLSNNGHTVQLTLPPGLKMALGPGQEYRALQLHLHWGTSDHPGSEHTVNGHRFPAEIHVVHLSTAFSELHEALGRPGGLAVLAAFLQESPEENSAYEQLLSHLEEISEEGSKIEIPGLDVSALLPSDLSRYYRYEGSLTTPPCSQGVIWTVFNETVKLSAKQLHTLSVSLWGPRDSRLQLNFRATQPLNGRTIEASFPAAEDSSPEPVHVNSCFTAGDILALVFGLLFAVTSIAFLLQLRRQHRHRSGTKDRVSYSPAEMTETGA
T7 sequence (O43570 25-301 limits assumed): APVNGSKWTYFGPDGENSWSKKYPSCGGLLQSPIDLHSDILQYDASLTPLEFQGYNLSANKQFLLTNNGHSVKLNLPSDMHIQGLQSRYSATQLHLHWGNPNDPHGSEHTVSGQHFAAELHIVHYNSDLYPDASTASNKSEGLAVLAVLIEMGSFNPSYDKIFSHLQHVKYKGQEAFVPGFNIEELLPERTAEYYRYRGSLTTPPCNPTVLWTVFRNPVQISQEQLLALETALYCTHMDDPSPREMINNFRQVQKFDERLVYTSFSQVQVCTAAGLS
T4 sequence (P22748 19-283 limits assumed): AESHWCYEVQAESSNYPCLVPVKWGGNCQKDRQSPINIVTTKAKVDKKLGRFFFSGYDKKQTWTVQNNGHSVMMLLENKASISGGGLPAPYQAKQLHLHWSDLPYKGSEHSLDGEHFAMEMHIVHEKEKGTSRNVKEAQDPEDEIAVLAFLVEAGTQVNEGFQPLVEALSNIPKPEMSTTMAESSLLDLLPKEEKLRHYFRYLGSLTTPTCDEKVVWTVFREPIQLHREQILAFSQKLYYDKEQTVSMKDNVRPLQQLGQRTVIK
T6 sequence (Q9ULX7 16-290 limits assumed): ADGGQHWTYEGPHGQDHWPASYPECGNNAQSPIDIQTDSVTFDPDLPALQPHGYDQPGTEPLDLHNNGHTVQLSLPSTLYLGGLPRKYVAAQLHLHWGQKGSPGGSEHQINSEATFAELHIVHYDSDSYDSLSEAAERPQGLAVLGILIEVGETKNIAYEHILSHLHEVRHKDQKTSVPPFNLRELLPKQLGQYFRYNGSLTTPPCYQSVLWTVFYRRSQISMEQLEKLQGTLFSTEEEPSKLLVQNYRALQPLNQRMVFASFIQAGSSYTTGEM

## {DOTA-PPAc}-QCE[dP]D[Aph(6SaPyr3)]LTWSC-NH2 (linker 2-11 via mXylylene) [3BP-4481]
[1]
  pIC50: 6.1 to 7 pic50

B1: [111In]In-DPI-4452: 111In-DOTA-PPAc-Q-[C(3MeBn)-EPD-Af3(Cpsu)-LTWSC]-NH2 (peptide)
peptide: {DOTA-PPAc}-QCE[dP]D[Phe(3-NHCO(CH2)3SO2NH2)]LTWSC-NH2
modifications: linker 2-11 via mXylylene; also: 111In complexed in DOTA
notes: also called 111In-3BP-4452; In-111-labeled DPI-4452
[2]
  pKd: ≥ 9

B2: DOTA-PPAc-Gln-[Cys(3MeBn)-Glu-pro-Asp-Af3(Cpsu)-Leu-Thr-Trp-Ser-Cys]-NH2 (peptide)
peptide: {DOTA-PPAc}-QCE[dP]D[Phe(3-NHCO(CH2)3SO2NH2)]LTWSC-NH2
modifications: linker 2-11 via mXylylene
notes: Synthetic cyclic peptide with uncomplexed DOTA; X stands for the non-natural residue Af3(Cpsu); also called DPI-4452; 3BP-4452
[3]
  t1/2 (dissociation half-life): 99 min

B3: [111In]In-DPI-4501: 111In-DOTA-Q-[C(3MeBn)-EPD-Aph(SaPr)-LTWSC]-NH2 (peptide)
peptide: {DOTA}-QCE[dP]D[Aph(SaPr)″]LTWSC-NH2
modifications: linker 2-11 via mXylylene; also: 111In complexed in DOTA
notes: also called 111In-3BP-4501; In-111-labeled DPI-4501
[2]
  pKd: ≥ 9

## {Cy5SO3-APAc″}-VYCE[dP]DWLTWSC-NH2 (linker 3-12 via mXylylene, Cyclic peptide with a fluorophore) [3BP-4149: Cy5SO3-APAc-Val-Tyr-[Cys(3MeBn)-Glu-pro-Asp-Trp-Leu-Thr-Trp-Ser-Cys]-NH2]
[4]
  pEC50: > 8 pec50

## {DOTA-APAc″}-VDCE[dP]DWLTW[Dap]C-NH2 (lactam 2-11; linker 3-12 via mXylylene) [3BP-4174]
[5]
  pKD: < 6 pkd
[6]
  t1/2 (half-life of the complex, SPR): > 15 min
[7]
  pKD: > 8 pkd
[8]
  pKD: > 8 pkd
[9]
  pKD: < 6 pkd
[10]
  pKD: < 6 pkd

## {DOTA-PPAc}-QCE[dP]D[Aph(4SaPy2Ac)]LTWSC-NH2 (linker 2-11 via mXylylene) [3BP-4482]
[1]
  pIC50: 6.1 to 7 pic50

## {DOTA-APAc}-VYCE[dP]DWLTWSC-NH2 (linker 3-12 via mXylylene; reading uncertain) [3BP-3583]
[5]
  pKD: < 6 pkd
[6]
  t1/2 (half-life of the complex, SPR): > 15 min
[7]
  pKD: > 8 pkd
[8]
  pKD: > 8 pkd
[9]
  pKD: < 6 pkd
[10]
  pKD: < 6 pkd

## {111In‑DOTA-APAc″}-VYCE[dP]DWLTWSC-NH2 (linker 3-12 via mXylylene, also called 3BP-3583 (111In-labeled)) [111In-3BP-3583]
[11]
  pKD: > 8 pkd
[12]
  pKD: > 8 pkd
[13]
  pKD: 6.1 to 7 pkd

B4: natGa-DPI-4452 (GaDOTA-PPAc-Gln-[Cys(3MeBn)-Glu-pro-Asp-Af3(Cpsu)-Leu-Thr-Trp-Ser-Cys]-NH2) (peptide)
peptide: {DOTA-PPAc(3)}-QCE[dP]D[Phe(3-NHCO(CH2)3SO2NH2)]LTWSC-NH2
modifications: linker 2-11 via mXylylene; also: natGa chelated by N-terminal DOTA
notes: Gallium complex of DPI-4452; also called 3BP-4529
[3]
  t1/2 (dissociation half-life): 112 min

## {111In‑DOTA}-QCE[dP]D[Aph(SaPr)(5)]LTWSC-NH2 (linker 2-11 via mXylylene, also called [111In]In-DPI-4501) [111In-3BP-4501]
[12]
  pKD: > 8 pkd
[14]
  pKD: 7.1 to 8 pkd

B5: natLu-DPI-4452 (LuDOTA-PPAc-Gln-[Cys(3MeBn)-Glu-pro-Asp-Af3(Cpsu)-Leu-Thr-Trp-Ser-Cys]-NH2) (peptide)
peptide: {DOTA-PPAc(3)}-QCE[dP]D[Phe(3-NHCO(CH2)3SO2NH2)]LTWSC-NH2
modifications: linker 2-11 via mXylylene; also: natLu chelated by N-terminal DOTA
notes: Lutetium complex of DPI-4452; also called 3BP-4555
[3]
  t1/2 (dissociation half-life): 123 min

## {DOTA-Sni}-YCE[dP]D[Phe(3-NHCO(CH2)3SO2NH2)]LTWSC-NH2 (linker 2-11 via mXylylene; reading uncertain) [3BP-4454]
[15]
  pIC50: 7.1 to 8 pic50
[6]
  t1/2 (half-life of the complex, SPR): > 15 min
[8]
  pKD: > 8 pkd

## {DOTA}-ECE[dP]D[Phe(3-NHCO(CH2)3SO2NH2)]LTW[Dap]C-NH2 (lactam 1-10; linker 2-11 via mXylylene, also called DPI-4503) [3BP-4503]
[5]
  pKD: < 6 pkd
[6]
  t1/2 (half-life of the complex, SPR): > 15 min
[7]
  pKD: > 8 pkd
[16]
  pIC50: > 8 pic50
[8]
  pKD: > 8 pkd
[9]
  pKD: < 6 pkd
[10]
  pKD: < 6 pkd

B6: 3BP-2775: H-Met-Gln-[Cys(3MeBn)-Glu-Ile-Trp-Val-Asp-Gly-Trp-Val-Thr-Cys]-Ttds-Lys(Bio)-NH2 (peptide)
peptide: H-MQCEIWVDGWVTC[Ttds(4)]K(Biotin)-NH2
modifications: linker 3-13 via mXylylene
SMILES: CC[C@H](C)[C@@H]1NC(=O)[C@H](CCC(=O)O)NC(=O)[C@@H](NC(=O)[C@H](CCC(N)=O)NC(=O)[C@@H](N)CCSC)CSCc2cccc(c2)CSC[C@@H](C(=O)NCCCOCCOCCOCCCNC(=O)CCC(=O)N[C@@H](CCCCNC(=O)CCCC[C@@H]2SC[C@@H]3NC(=O)N[C@@H]32)C(N)=O)NC(=O)[C@H]([C@@H](C)O)NC(=O)[C@H](C(C)C)NC(=O)[C@H](Cc2c[nH]c3ccccc23)NC(=O)CNC(=O)[C@H](CC(=O)O)NC(=O)[C@H](C(C)C)NC(=O)[C@H](Cc2c[nH]c3ccccc23)NC1=O
notes: Cyclic peptide, biotinylated
[17]
  pEC50: 7.1 to 8 pec50

## {DOTA-APAc}-VYCE[dP]D[Af3(Btda)]LTWSC-NH2 (linker 3-12 via mXylylene; reading uncertain) [3BP-4415]
[1]
  pIC50: 6.1 to 7 pic50

## {111In‑DOTA-PPAc}-QCE[dP]D[Phe(3-NHCO(CH2)3SO2NH2)]LTWSC-NH2 (linker 2-11 via mXylylene, also called [111In]In-DPI-4452) [111In-3BP-4452]
[12]
  pKD: > 8 pkd
[14]
  pKD: 7.1 to 8 pkd
